{"source": "the RNAGym collection of RNA variant scans (doi:10.1093/nar/gkz1192)", "parents": {"B1": {"name": "CPEB3 Ribozyme (parent)", "chain": "UAACAGGGGGCCACAGCAGAAGCGUUCACGUCGCAGCCCCUGUCAGAUUCUGGUGAAUCUGCGAAUUCUGCUGUAUAUCUC"}}}
{"variants_of": "B1", "assay": "self-cleavage, relative activity (ratio to wild type); higher = more cleavage; in vitro, sequencing", "in_short": "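CPEB3 self-cleaving ribozyme mutant libraries were made by rounds of error-prone PCR, barcoded, and transcribed in vitro with T7 RNA polymerase for 5 hours at 37°C. Cleavage occurred during transcription and a 15 min DNase I step before EDTA stop. RNAs were reverse transcribed with template switching and Illumina-sequenced, with DNA sequencing mapping barcodes to variants. Relative activity is the variant's cleaved/total read fraction divided by wild type's (minimum 5 reads), averaged across three batches.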"}
{"variant": "U60C U67C", "self-cleavage": 0.35}
{"variant": "U60C U67A", "self-cleavage": 0.3}
{"variant": "U60C U67G", "self-cleavage": 0.2}
{"variant": "U60C A64G", "self-cleavage": 0.36}
{"variant": "U60C A64C", "self-cleavage": 0.61}
{"variant": "U60C A64U", "self-cleavage": 0.31}
{"variant": "U60C U66A", "self-cleavage": 0.33}
{"variant": "U60C U66C", "self-cleavage": 0.29}
{"variant": "U60C U66G", "self-cleavage": 0.15}
{"variant": "G61U G70A", "self-cleavage": 0.31}
{"variant": "G61A U66C", "self-cleavage": 0.39}
{"variant": "U60C C62A", "self-cleavage": 0.19}
{"variant": "U60C C62U", "self-cleavage": 0.33}
{"variant": "C62A", "self-cleavage": 0.31}
{"variant": "U60A U76A", "self-cleavage": 0.61}
{"variant": "U60A U76C", "self-cleavage": 0.56}
{"variant": "C62A G63A", "self-cleavage": 0.25}
{"variant": "G61A G63A", "self-cleavage": 0.84}
{"variant": "U60C G61C", "self-cleavage": 0.29}
{"variant": "U60C G61U", "self-cleavage": 0.26}
{"variant": "G61U", "self-cleavage": 0.6}
{"variant": "G61C", "self-cleavage": 0.34}
{"variant": "G61A", "self-cleavage": 0.75}
{"variant": "U60A U72G", "self-cleavage": 0.61}
{"variant": "U60A U72C", "self-cleavage": 0.64}
{"variant": "U60A U72A", "self-cleavage": 0.54}
{"variant": "U60G U72G", "self-cleavage": 0.28}
{"variant": "U60G U72C", "self-cleavage": 0.32}
{"variant": "U60G U72A", "self-cleavage": 0.22}
{"variant": "U60C A75C", "self-cleavage": 0.72}
{"variant": "U60C A75G", "self-cleavage": 0.37}
{"variant": "U60C A75U", "self-cleavage": 0.57}
{"variant": "U60A G61C", "self-cleavage": 0.22}
{"variant": "U60A G61U", "self-cleavage": 0.38}
{"variant": "G61C U80C", "self-cleavage": 0.5}
{"variant": "U60C A65G", "self-cleavage": 0.28}
{"variant": "U60C A65C", "self-cleavage": 0.17}
{"variant": "U60C A65U", "self-cleavage": 0.27}
{"variant": "U60A U74C", "self-cleavage": 1.04}
{"variant": "U60A U74G", "self-cleavage": 0.91}
{"variant": "U60A U74A", "self-cleavage": 0.75}
{"variant": "G61A A77G", "self-cleavage": 0.8}
{"variant": "G61A A77U", "self-cleavage": 0.98}
{"variant": "G61A U69A", "self-cleavage": 0.4}
{"variant": "G61A U69C", "self-cleavage": 0.53}
{"variant": "U60C C79G", "self-cleavage": 0.81}
{"variant": "U60C C79U", "self-cleavage": 0.72}
{"variant": "U60C C79A", "self-cleavage": 0.93}
{"variant": "U60C A77U", "self-cleavage": 0.55}
{"variant": "U60C A77G", "self-cleavage": 0.51}
{"variant": "G61C U74C", "self-cleavage": 0.23}
{"variant": "G61C U74A", "self-cleavage": 0.88}
{"variant": "G61U U76A", "self-cleavage": 0.39}
{"variant": "G61C U66A", "self-cleavage": 0.23}
{"variant": "G61C U66C", "self-cleavage": 0.54}
{"variant": "U60C U76A", "self-cleavage": 0.58}
{"variant": "U60C U76C", "self-cleavage": 0.51}
{"variant": "U60C U76G", "self-cleavage": 0.51}
{"variant": "U60G G70A", "self-cleavage": 0.21}
{"variant": "G61A G73A", "self-cleavage": 1.21}
{"variant": "U60G U78A", "self-cleavage": 0.36}
{"variant": "U60G U78C", "self-cleavage": 0.17}
{"variant": "U60C C81A", "self-cleavage": 0.37}
{"variant": "U60C C81U", "self-cleavage": 0.74}
{"variant": "U60C", "self-cleavage": 0.54}
{"variant": "U60G", "self-cleavage": 0.48}
{"variant": "G61A G70U", "self-cleavage": 0.12}
{"variant": "U60G A64U", "self-cleavage": 0.21}
{"variant": "U60G A64G", "self-cleavage": 0.42}
{"variant": "G61U U67G", "self-cleavage": 0.23}
{"variant": "G61U U67C", "self-cleavage": 0.21}
{"variant": "U60A U69G", "self-cleavage": 0.25}
{"variant": "U60A U69A", "self-cleavage": 0.33}
{"variant": "U60A U69C", "self-cleavage": 0.34}
{"variant": "U60A U67A", "self-cleavage": 0.42}
{"variant": "U60A U67C", "self-cleavage": 0.37}
{"variant": "U60A U67G", "self-cleavage": 0.79}
{"variant": "G61A U72A", "self-cleavage": 0.3}
{"variant": "G61A U72C", "self-cleavage": 0.73}
{"variant": "U60G U66C", "self-cleavage": 0.15}
{"variant": "U60G U66G", "self-cleavage": 0.24}
{"variant": "U60A C79U", "self-cleavage": 0.69}
{"variant": "G61C G63U", "self-cleavage": 0.35}
{"variant": "U60A U66A", "self-cleavage": 0.18}
{"variant": "U60A U66C", "self-cleavage": 0.34}
{"variant": "U60C G63U", "self-cleavage": 0.58}
{"variant": "U60C G63C", "self-cleavage": 0.54}
{"variant": "U60C G63A", "self-cleavage": 0.57}
{"variant": "G61A A65G", "self-cleavage": 0.39}
{"variant": "G61A U67C", "self-cleavage": 0.36}
{"variant": "G61A U67A", "self-cleavage": 0.43}
{"variant": "G61A U67G", "self-cleavage": 0.25}
{"variant": "U60G U74A", "self-cleavage": 0.82}
{"variant": "U60G U74C", "self-cleavage": 0.88}
{"variant": "U60C U74C", "self-cleavage": 0.79}
{"variant": "U60C U74A", "self-cleavage": 0.96}
{"variant": "U60C U74G", "self-cleavage": 0.66}
{"variant": "U60A G70A", "self-cleavage": 0.52}
{"variant": "C62A A65G", "self-cleavage": 0.36}
{"variant": "C62A A65U", "self-cleavage": 0.24}
{"variant": "U60C C71U", "self-cleavage": 0.3}
{"variant": "U60C C71A", "self-cleavage": 0.25}
{"variant": "U60G U67A", "self-cleavage": 0.26}
{"variant": "U60G U67C", "self-cleavage": 0.13}
{"variant": "G61A U80A", "self-cleavage": 0.91}
{"variant": "G61A U80C", "self-cleavage": 0.9}
{"variant": "G61A U80G", "self-cleavage": 1}
{"variant": "U60C G73A", "self-cleavage": 1.09}
{"variant": "U60C G73C", "self-cleavage": 0.9}
{"variant": "C62A A77G", "self-cleavage": 0.24}
{"variant": "U60A U80A", "self-cleavage": 0.59}
{"variant": "U60A U80C", "self-cleavage": 0.63}
{"variant": "U60A U80G", "self-cleavage": 0.84}
{"variant": "G61U U74C", "self-cleavage": 1.19}
{"variant": "G61A U78C", "self-cleavage": 0.62}
{"variant": "U60C C68G", "self-cleavage": 0.31}
{"variant": "U60C C68A", "self-cleavage": 0.32}
{"variant": "U60G A65G", "self-cleavage": 0.24}
{"variant": "U60G U80C", "self-cleavage": 0.63}
{"variant": "U60A C81U", "self-cleavage": 0.76}
{"variant": "U60A C81G", "self-cleavage": 0.93}
{"variant": "U60G C62A", "self-cleavage": 0.34}
{"variant": "G61U U72C", "self-cleavage": 0.72}
{"variant": "G61U U72G", "self-cleavage": 0.53}
{"variant": "G61A U76C", "self-cleavage": 0.88}
{"variant": "G61U A64U", "self-cleavage": 0.23}
{"variant": "C62A A64G", "self-cleavage": 0.25}
{"variant": "U60C U72C", "self-cleavage": 0.53}
{"variant": "U60C U72A", "self-cleavage": 0.37}
{"variant": "U60C U72G", "self-cleavage": 0.39}
{"variant": "U60C G70A", "self-cleavage": 0.48}
{"variant": "U60C G70C", "self-cleavage": 0.27}
{"variant": "U60C G70U", "self-cleavage": 0.44}
{"variant": "U60C U80C", "self-cleavage": 0.57}
{"variant": "U60C U80A", "self-cleavage": 0.61}
{"variant": "U60C U80G", "self-cleavage": 0.44}
{"variant": "U60G A77G", "self-cleavage": 0.47}
{"variant": "U60G A77U", "self-cleavage": 0.38}
{"variant": "U60C U69G", "self-cleavage": 0.39}
{"variant": "U60C U69A", "self-cleavage": 0.35}
{"variant": "U60C U69C", "self-cleavage": 0.37}
{"variant": "G61A C79A", "self-cleavage": 1.16}
{"variant": "G61U U69A", "self-cleavage": 0.3}
{"variant": "U60G U69A", "self-cleavage": 0.39}
{"variant": "U60G U69C", "self-cleavage": 0.23}
{"variant": "G61U U80C", "self-cleavage": 0.65}
{"variant": "G61A U74C", "self-cleavage": 1.12}
{"variant": "G61C U72C", "self-cleavage": 0.34}
{"variant": "U60A U78G", "self-cleavage": 0.38}
{"variant": "U60A U78C", "self-cleavage": 0.44}
{"variant": "U60A U78A", "self-cleavage": 0.72}
{"variant": "G61C A64U", "self-cleavage": 0.32}
{"variant": "G61C A64G", "self-cleavage": 0.19}
{"variant": "U60G C71U", "self-cleavage": 0.2}
{"variant": "C62A G73A", "self-cleavage": 0.24}
{"variant": "G61A C62U", "self-cleavage": 0.17}
{"variant": "U60A G63C", "self-cleavage": 0.75}
{"variant": "U60A G63U", "self-cleavage": 0.53}
{"variant": "U60A G63A", "self-cleavage": 0.61}
{"variant": "G61C U78C", "self-cleavage": 0.33}
{"variant": "G61C C62U", "self-cleavage": 0.22}
{"variant": "U60A G73A", "self-cleavage": 1.16}
{"variant": "G61C A65C", "self-cleavage": 0.22}
{"variant": "G61C A65G", "self-cleavage": 0.39}
{"variant": "C62A A75G", "self-cleavage": 0.12}
{"variant": "U60C U78C", "self-cleavage": 0.45}
{"variant": "U60C U78A", "self-cleavage": 0.55}
